In PMC7374715, “Conservation of Cdc14 phosphatase specificity in plant fungal pathogens: implications for antifungal development” (Scientific Reports, 2020):
Like-named read-outs stand apart in the source and are kept apart here.

Experiments:
[1] = substrate: Cc1cc(=O)oc2c(F)c(OP(=O)(O)O)c(F)cc12; experiment: purified protein, by the assay type; details: other: DiFMUP, 0.5 nM enzyme, pH 7.5, 30 °C, mean of 3 ± SD
Procedure: All enzyme concentrations were 0.5 nM, except for PsCdc14 and VHR, which were assayed at 2 and 5 nM, respectively. Fluorescence intensity was measured continuously on a Synergy H1 microplate reader (BioTek) with excitation and emission wavelengths set at 358 and 450 nm, respectively. Fluorescence intensity was converted to product concentration using a 6,8-difluoro-4-methylumbelliferone standard curve. Background fluorescence was subtracted from each reaction and initial rates were calculated from the slope of the linear portion of the product concentration versus time plots. kcat and KM were calculated as described above.

[2] = substrate: O=[N+]([O-])c1ccc(OP(=O)(O)O)cc1; assay type: biochemical, Botrytis cinerea; details: other: pNPP, 25 mM HEPES pH 7.5, 30 °C, mean of 3 ± SD
Procedure: (§1) Activities towards varying concentrations of para-nitrophenyl phosphate (pNPP) were measured in 100 µL assay buffer (25 mM HEPES pH 7.5, 2 mM TCEP, 1 mM EDTA, and 150 mM NaCl) at 30 °C. Enzyme concentrations were chosen to achieve absorbance values within the linear response range while satisfying the steady-state assumption where substrate consumption was < 1%. Reactions were initiated by enzyme addition and stopped with 1 N NaOH. Absorbance at 405 nm was measured on a Synergy H1 microplate reader (BioTek) and converted to product concentration using a para-nitrophenol standard curve. Initial rates were plotted as a function of substrate concentration and fit with the Michealis-Menten equation in GraphPad Prism (Version 8) to determine kcat and KM.

[3] = substrate: O=[N+]([O-])c1ccc(OP(=O)(O)O)cc1; assay type: biochemical, Saccharomyces cerevisiae; details: other: pNPP, 25 mM HEPES pH 7.5, 30 °C, mean of 3 ± SD
Procedure: as §1

Protein | Km [1] [mM] | kcat [1] [s⁻¹] | kcat/Km [1] [M⁻¹ s⁻¹] | Km [2] [mM] | kcat [2] [s⁻¹] | kcat/Km [2] [M⁻¹ s⁻¹] | Km [3] [mM] | kcat [3] [s⁻¹] | kcat/Km [3] [M⁻¹ s⁻¹]
BcCdc14 (Botrytis cinerea B05.10) (protein) MHPMDYNSMLEWATLLPNDAHPGASAKKGPKDPREEDRPFHWLTYTDRLYLASYTTPPSPDTLFPYPEQQSSRRSPTKRSARAADGPSVVSDKREPPHYFSVDDTLLYNAFHHDFGPLHIGHLYRFAVQFHDILGAPENKNKPVVFWSKADARSRANAACLLATYMVLIQSWAPHLALAPIAQADPPLMPFRDAGYSQADYGITVQDVVYGVWRAKEQGFCALPQFDLEEYERYERVDQGDFNWLTPDFLAFASPQHHPVQPILPSSPLYASLPTTLEDVDTHPTLPTPFKNVLKHFTSRNIGLVVRLNSELYSPSFFTALGIEHLDMIFDDGTCPPLSVVRKFITLAHEMITVQKRGIAVHCKAGLGRTGCLIGAYLIYRYGFTANEIIAYMRFMRPGMVVGPQQHWLHLNQGTFREWWIEEQFEIRMKEKLANMAPVTPRKGHYTSKSQVVTPPNGNQRTPLGEVDNERSHSIGAQEDYLPAPTPGQPRK | 0.034 ± 0.007 | 1 ± 0.2 | 43100 ± 11000 | 16 ± 2 | 0.38 ± 0.003 | 24 ± 2 |  |  | 
ScCdc14 (Saccharomyces cerevisiae S288C) (protein, made in house; host or cells: E. coli BL21 AI) MRRSVYLDNTIEFLRGRVYLGAYDYTPEDTDELVFFTVEDAIFYNSFHLDFGPMNIGHLYRFAVIFHEILNDPENANKAVVFYSSASTRQRANAACMLCCYMILVQAWTPHQVLQPLAQVDPPFMPFRDAGYSNADFEITIQDVVYGVWRAKEKGLIDLHSFNLESYEKYEHVEFGDFNVLTPDFIAFASPQEDHPKGYLATKSSHLNQPFKSVLNFFANNNVQLVVRLNSHLYNKKHFEDIGIQHLDLIFEDGTCPDLSIVKNFVGAAETIIKRGGKIAVHCKAGLGRTGCLIGAHLIYTYGFTANECIGFLRFIRPGMVVGPQQHWLYLHQNDFREWKYTTRISLKPSEAIGGLYPLISLEEYRLQKKKLKDDKRVAQNNIEGELRDLTMTPPSNGHGALSARNSSQPSTANNGSNSFKSSAVPQTSPGQPRKGQNGSNTIEDIN | 0.011 ± 0.003 | 3 ± 0.4 | 253000 ± 34000 |  |  |  | 23 ± 1 | 1.12 ± 0.08 | 50 ± 4
